The values that follow come from patent publication US20220380768A1 (TALLAC THERAPEUTICS, published 2022).

For experiment [1], the target named is T1, human CD22 (d1 to d7 domain according to NP_001762.2) (human, UniProt P20273 20-687).
T1 construct: domain: d1 to d7 domain; also called human CD22-gly; Siglec-2
Briefly: SPR; summary table, column 'CD22 KD (nM)'. A general note: SPR reads the build-up and loss of mass on a sensor chip optically.

Experiment [2] concerns the target T1, human CD22 (d1 to d7 domain according …). Briefly: SPR; mAb supernatant captured on protein A chip, human CD22 injected. As for the experimental part:
Binding of humanized anti-CD22 antibodies to human CD22 was measured by surface plasmon resonance (SPR). For assessment of binding by SPR, biotinylated protein A (15 μg/mL) was immobilized to the surface of an NLC chip. 30 μL of mAb supernatant was added to 150 μL of PBS-T and captured over the protein A surface. Serial dilutions of human CD22-gly (300 nM, 3× dilution) were injected over the mAb-coated chips, and binding kinetics were determined. Chips were regenerated using 4:1 v/v of Pierce IgG elution butter/4M NaCl.

Experiment [3] has the same target. Briefly: SPR; purified naked mAb captured on protein A chip, human CD22 injected. Here is the method:
To assess if CpG conjugation affects the binding of respective humanized anti-CD22 to human CD22, SPR assay was carried out. […] Briefly, biotinylated protein A (15 μg/mL) was immobilized to the surface of an NLC chip. 30 nM of purified naked mAb or CpG conjugated mAb solution in PBS-T was used for capture over the protein A surface. Serial dilutions of human CD22 (300 nM, 3× dilution) were injected over the mAb-coated chips, and binding kinetics were determined. Chips were regenerated using 4:1 v/v of Pierce IgG elution butter/4M NaCl.

In experiment [4] the target is T2, human CD22 on B cells of human PBMCs (human, UniProt P20273 20-847).
T2 construct: whole, on cells; also called CD22 on human B cells
Briefly: flow cytometry; Alexa Fluor 647-labelled antibody on CD20+ B cells of human PBMCs. Here is the method:
(§1) Binding of humanized anti-CD22 antibodies to human or cynomolgus PBMCs was measured by flow cytometry. Trima residuals were received from Vitalant and cynomolgus monkey whole blood were received from BioIVT. Both were diluted 1:4 with Phosphate Buffered Saline (PBS, Gibco). Diluted blood was split into two tubes and underplayed with 15 mL Ficoll-Paque (GE Healthcare). Tubes were centrifuged for 30 minutes at 400×g. PBMCs were collected from the interface, washed and resuspended in FACS buffer (PBS with 0.5% Bovine Serum Albumin (Gibco)). 100K PBMCs from human and cynomolgus monkey were plated in 96-well plates and pelleted by centrifugation for five minutes at 400×g and stained at 4° C. in 100 μl Fixable Viability Dye eFluor 780 (Thermo Fisher) diluted 1:4000 in PBS. Cells were centrifuged and stained at 4° C. in 100 μl FACS buffer for 30 minutes containing FcR Blocking Reagent (Miltenyi Biotec), anti-CD20 and Alexa Fluor 647 conjugated CD22 binding antibodies, which were labeled using Molecular Probes Alexa Fluor 647 Protein Labeling kit (Molecular Probes) according to manufacturer's protocol. Cells were centrifuged and washed twice in 200 μl FACS buffer and fixed in 100 μl 0.5% paraformaldehyde. Cells were analyzed on Attune NxT Flow Cytometer (Thermo Fisher), with subsequent data analysis by Flowjo 10.7 (Treestar). Dead cells were excluded by gating on the eFluor 780-negative population. CD20+ cells were gated to identify B cells and median fluorescent intensity for CD22 was determined.

The target of experiment [5] is T3, cynomolgus monkey CD22 on B cells of cynomolgus PBMCs (cynomolgus monkey).
T3 construct: whole, on cells; also called cynomolgus CD22; Cyno CD22
The experiment in a line: flow cytometry; Alexa Fluor 647-labelled antibody on CD20+ B cells of cynomolgus PBMCs. As for the experimental part:
as §1

Experiment [6] deals with T2, human CD22 on B cells of human PBMCs. The experiment in a line: flow cytometry; Alexa Fluor 647-labelled antibody, human PBMCs. Here is the method: as §1
(§2) The fold increase in binding was determined by calculating the ratio of CD22 median fluorescent intensity on CD20⁺ over CD20⁻ cells.
(In general: Flow cytometry measures light scatter and fluorescence of single cells or particles in a stream.)

The target in experiment [7] is T3, cynomolgus monkey CD22 on B cells of …. The experiment in a line: flow cytometry; Alexa Fluor 647-labelled antibody, cynomolgus PBMCs. Here is the method: as §1, §2

B1: TNT71 (antibody, human IgG1, kappa, V domains shown)
VH: EVQLVESGGGLVQPGGSLRLSCAASGFTFSSYEMNWVRQAPGKGLEWVSYISSSGSTIYYADSVKGRFTISRDNAKNSLYLQMNSLRAEDTAVYYCARHSGYGTHWGVLFAYWGRGTLVTVSS
VL: DIQMTQSPSSLSASVGDRVTITCRASQDIHGYLNWYQQKPGKAPKLLIYYTSILHSGVPSRFSGSGSGTDFTLTISSLQPEDFATYFCQQGNTLPWTFGQGTKLEIKR
By Kd is commonly meant a measure of binding affinity in units of concentration. Consider B1, for which the values for the Kd in experiment [1], in experiment [2] and in experiment [3] were 0.3 nM, 5.2 nM and 0.263 nM, respectively. Further, the results for the “CD22 Median Fluorescent Intensity on CD20+ cells” value (“CD22 Median Fluorescent Intensity” for short) in experiment [4] and in experiment [5] were 1460 and 1420, respectively.

B2: TNT77 (antibody, human IgG1, kappa, V domains shown)
VH: EVQLVESGGGLVQPGGSLRLSCAASGFAFSIYDMSWVRQAPGKGLEWVAYISSGGGTTYYPDTVKGRFTISRDNSKNTLYLQMNSLRAEDTAVYYCARHSGYGTHWGVLFAYWGRGTLVTVSS
VL: DIQMTQSPSSLSASVGDRVTITCRASQSISSYLNWYQQKPGKAPKLLIYAASSLQSGVPSRFSGSGSGTDFTLTISSLQPEDFATYYCQQGNTLPWTFGQGTKLEIKR
Broadly, the koff is the rate constant with which the complex falls apart. As usually defined, the kon is the second-order rate constant of association. In the case of B2, the results for the dissociation constant (Kd) in experiment [1] and in experiment [2] were 10 nM and 10.2 nM, respectively. In addition, the “CD22: CD20+/CD20- (ratio of median fluorescent intensity)” value in experiment [6] is 20.9 fold; in experiment [7], 2.6 fold. In experiment [2], this molecule came in with a koff of 0.00207 s⁻¹. For the same molecule, the kon in experiment [2] came out at 203000 M⁻¹ s⁻¹. Further, the “CD22 Median Fluorescent Intensity” value in experiment [4] was determined as 1320; in experiment [5], 236.

B3: TNT82 (antibody, human IgG1, kappa, V domains shown)
VH: QVQLLESGGGVVQPGGSLRLSCAASGFAFSIYDMNWVRQAPGKGLEWVSAISSGGGTTYYADSVKGRFTISRDNAKNSLYLQMNSLRAEDTAVYYCARHSGYGTHWGVLFAYWGRGTLVTVSS
VL: EIVLTQSPATLSLSPGERATLSCRASQDIHGYLNWYQQKPGQAPRLLIYYTSILHSGIPARFSGSGPGTDFTLTISSLEPEDFAVYYCQQGNTLPWTFGGGTKLEIKR
B3: the dissociation constant Kd in experiment [1] was 0.9 nM; in experiment [2], 0.937 nM. In addition, the “CD22: CD20+/CD20- (ratio of median fluorescent intensity)” value came to 23.9 fold in experiment [6] and 12.6 fold in experiment [7]. The molecule further displayed an off-rate (koff) in experiment [2] of 0.000156 s⁻¹. In addition, the kon in experiment [2] turned out to be 167000 M⁻¹ s⁻¹. Further, the “CD22 Median Fluorescent Intensity” value in experiment [4] amounted to 1520; in experiment [5], 1170.

B4: TNT72 (antibody, human IgG1, kappa, V domains shown)
VH: QVQLQESGPGLVKPSDTLSLTCTVSGFAFSIYDMSWIRQPPGKGLEWIAYISSGGGTTYYNPSLKSRVTISVDTSKNQFSLKLSSVTAADTAVYYCARHSGYGTHWGVLFAYWGRGTLVTVSS
VL: DIQMTQSPSSLSASVGDRVTITCRASQDIHGYLNWYQQKPGKAPKLLIYYTSILHSGVPSRFSGSGSGTDFTLTISSLQPEDFATYFCQQGNTLPWTFGQGTKLEIKR
For the molecule B4, the Kd was found to be 0.7 nM in experiment [1], 0.655 nM in experiment [2] and 0.922 nM in experiment [3]. In addition, the “CD22 Median Fluorescent Intensity” value stood at 1560 in experiment [4] and 1370 in experiment [5].

B5: TNT75 (antibody, human IgG1, kappa, V domains shown)
VH: EVQLVESGGGLVQPGGSLRLSCAASGFTFSSYEMNWVRQAPGKGLEWVSYISSSGSTIYYADSVKGRFTISRDNAKNSLYLQMNSLRAEDTAVYYCARHSGYGTHWGVLFAYWGRGTLVTVSS
VL: DIQMTQSPSSVSASVGDRVTITCRASQDIHGYLAWYQQKPGKAPKLLIYYTSSLQSGVPSRFSGSGSGTDFTLTISSLQPEDFATYYCQQGNTLPWTFGQGTKLEIKR
As to B5, the Kd in experiment [1] and in experiment [2] was 30 nM each time. Besides, the “CD22: CD20+/CD20- (ratio of median fluorescent intensity)” value in experiment [6] was 26.7 fold; in experiment [7] it was 6.7 fold. In experiment [2], this molecule yielded a koff of 0.0084 s⁻¹. In addition, the kon in experiment [2] was determined as 280000 M⁻¹ s⁻¹. Moreover, the entries for the “CD22 Median Fluorescent Intensity” value in experiment [4] and in experiment [5] were 1630 and 588, respectively.

B6: TNT83 (antibody, human IgG1, kappa, V domains shown)
VH: EVQLVESGGGLVQPGGSLRLSCAASGFTFSSYEMNWVRQAPGKGLEWVSYISSSGSTIYYADSVKGRFTISRDNAKNSLYLQMNSLRAEDTAVYYCARHSGYGTHWGVLFAYWGRGTLVTVSS
VL: EIVLTQSPATLSLSPGERATLSCRASQDIHGYLNWYQQKPGQAPRLLIYYTSILHSGIPARFSGSGPGTDFTLTISSLEPEDFAVYYCQQGNTLPWTFGGGTKLEIKR
In the case of B6, the dissociation constant Kd is 6 nM in experiment [1] and 5.94 nM in experiment [2]. In addition, the “CD22: CD20+/CD20- (ratio of median fluorescent intensity)” value came out at 23 fold in experiment [6] and 10.8 fold in experiment [7]. This molecule also came in with a koff in experiment [2] of 0.0016 s⁻¹. This molecule returned a kon in experiment [2] of 269000 M⁻¹ s⁻¹. The “CD22 Median Fluorescent Intensity” value in experiment [4] was 1490; in experiment [5] it was 1400.

B7: TNT88 (antibody, human IgG1, kappa, V domains shown)
VH: QVQLQESGPGLVKPSDTLSLTCTVSGFAFSIYDMSWIRQPPGKGLEWIAYISSGGGTTYYNPSLKSRVTISVDTSKNQFSLKLSSVTAADTAVYYCARHSGYGTHWGVLFAYWGRGTLVTVSS
VL: DIVMTQTPLSLSVTPGQPASISCRASQDIHGYLNWYQQKPGQSPQLLIYYTSILHSGVPDRFSGSGSGTDFTLKISRVEAEDVGVYFCQQGNTLPWTFGGGTKLEIKR
Turning to B7, the Kd in experiment [1] turned out to be 1.3 nM; in experiment [2], 1.34 nM. In addition, the “CD22: CD20+/CD20- (ratio of median fluorescent intensity)” value in experiment [6] stood at 26.2 fold; in experiment [7] it was 14.7 fold. Further, the koff in experiment [2] was found to be 0.000289 s⁻¹. In experiment [2], the kon worked out at 215000 M⁻¹ s⁻¹. In addition, the “CD22 Median Fluorescent Intensity” value is 1530 in experiment [4] and 1270 in experiment [5].
